According to patent publication US20170066829A1 (published 2017):

Molecular target: HER2 molecule (antigen of the affinity ELISA of FIG. 4) (UniProt P04626 23-652, limits assumed)
Assay: ELISA with dilutions of HRP-conjugated Hersintuzumab, sigmoidal OD 450 nm curves

Ka: 6e+08 M⁻¹
B1: Hersintuzumab (antibody, V domains shown)
VH: EVKLVESGGGLVKPGGSLRLSCATSGFSFSSYYMYWVRQAPGKRLEWVAYISSGSEIYYSDSVKGRFTISRDSAKNTLYLQMNSLRAEDTAVYYCARLGDDGMDVWGQGTTVTVSS
VL: DIVMTQSPSSLSASVGDRVTITCRASQNVRTAVAWFQQKPGKAPKALIYLASNRHTGVPDRFTGSGSGTEFTLTISNLQPEDFATYFCLQHNSYPLTFGGGTKVEIK
notes: also called humanized anti-HER2 antibody; humanized monoclonal anti-HER2 antibody
